Results published in article PMC3786598 (Microscopy and microanalysis : the official journal of …, 2012).

Molecular target: the molecule itself
Assay: single-molecule stepwise photobleaching

B1: prestin-eGFP (natural protein, UniProt Q9JKQ2 1-744, looked up)
chain: MDHAEENEIPVATQKYHVERPIFSHPVLQERLHVKDKVSESIGDKLKQAFTCTPKKIRNIIYMFLPITKWLPAYKFKEYVLGDLVSGISTGVLQLPQGLAFAMLAAVPPVFGLYSSFYPVIMYCFFGTSRHISIGPFAVISLMIGGVAVRLVPDDIVIPGGVNATNGTEARDALRVKVAMSVTLLSGIIQFCLGVCRFGFVAIYLTEPLVRGFTTAAAVHVFTSMLKYLFGVKTKRYSGIFSVVYSTVAVLQNVKNLNVCSLGVGLMVFGLLLGGKEFNERFKEKLPAPIPLEFFAVVMGTGISAGFNLHESYSVDVVGTLPLGLLPPANPDTSLFHLVYVDAIAIAIVGFSVTISMAKTLANKHGYQVDGNQELIALGICNSIGSLFQTFSISCSLSRSLVQEGTGGKTQLAGCLASLMILLVILATGFLFESLPQAVLSAIVIVNLKGMFMQFSDLPFFWRTSKIELTIWLTTFVSSLFLGLDYGLITAVIIALLTVIYRTQSPSYKVLGQLPDTDVYIDIDAYEEVKEIPGIKIFQINAPIYYANSDLYSNALKRKTGVNPALIMGARRKAMRKYAKEVGNANIANAAVVKVDGEVDGENATKPEEEDDEVKYPPIVIKTTFPEELQRFMPQTENVHTIILDFTQVNFIDSVGVKTLAVMVKEYGDVGIYVYLAGCSPQVVNDLTRNRFFENPALKELLFHSIHDAVLGSHVREAMAEQEASAPPPQDDMEPNATPTTPEA
stoichiometry N: 4
